Test results: IntAct's records for PubMed 22575647

B1: Nuclear receptor subfamily 0 group B member 2 (Homo sapiens), Q15466 (parent)
chain: MSTSQPGACPCQGAASRPAILYALLSSSLKAVPRPRSRCLCRQHRPVQLCAPHRTCREALDVLAKTVAFLRNLPSFWQLPPQDQRRLLQGCWGPLFLLGLAQDAVTFEVAEAPVPSILKKILLEEPSSSGGSGQLPDRPQPSLAAVQWLQCCLESFWSLELSPKEYACLKGTILFNPDVPGLQAASHIGHLQQEAHWVLCEVLEPWCPAAQGRLTRVLLTASTLKSIPTSLLGDLFFRPIIGDVDIAGLLGDMLLLR

Variants of: B1
Conditions: with mdm2_human MDM2, Q00987
Sequence of mdm2_human MDM2, Q00987 (Q00987 whole entry, looked up): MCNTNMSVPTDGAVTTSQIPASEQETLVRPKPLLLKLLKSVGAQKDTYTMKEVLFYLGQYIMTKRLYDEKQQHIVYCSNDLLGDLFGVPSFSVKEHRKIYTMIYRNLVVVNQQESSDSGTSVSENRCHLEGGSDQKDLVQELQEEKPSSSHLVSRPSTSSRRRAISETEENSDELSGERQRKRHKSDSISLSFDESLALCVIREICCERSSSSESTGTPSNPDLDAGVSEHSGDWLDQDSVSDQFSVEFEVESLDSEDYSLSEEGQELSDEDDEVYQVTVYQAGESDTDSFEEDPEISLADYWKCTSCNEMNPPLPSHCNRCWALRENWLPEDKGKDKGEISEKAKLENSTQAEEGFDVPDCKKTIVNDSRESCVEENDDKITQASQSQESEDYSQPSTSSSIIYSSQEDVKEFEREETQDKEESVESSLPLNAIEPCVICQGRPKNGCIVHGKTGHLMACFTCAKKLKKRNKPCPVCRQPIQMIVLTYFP

| effect of a mutation on the interaction | Variant |
| --- | --- |
| increasing interaction | K170N |

Variants of: B1
Conditions: with mdm2_human MDM2, Q00987
Remark: another data set of the same source

| effect of a mutation on the interaction | Variant |
| --- | --- |
| disrupting interaction | K170R |
